{"source": "patent US20250043005A1", "about": "(GENEQUANTUM HEALTHCARE SUZHOU, published 2025)", "binders": {"B1": {"name": "Recombinant hIL21R protein (receptor)", "chain": "not shown", "notes": "also called human IL21 receptor; Hu-IL21R"}}, "key": {"[1]": {"biological_target": "T1, Recombinant hPD-L1 protein (Acrobiosystems, PD1-H5253) (human, UniProt Q9NZQ7 19-238)", "T1 construct": "also called human PD-L1", "T1 sequence (Q9NZQ7 19-238 limits assumed)": "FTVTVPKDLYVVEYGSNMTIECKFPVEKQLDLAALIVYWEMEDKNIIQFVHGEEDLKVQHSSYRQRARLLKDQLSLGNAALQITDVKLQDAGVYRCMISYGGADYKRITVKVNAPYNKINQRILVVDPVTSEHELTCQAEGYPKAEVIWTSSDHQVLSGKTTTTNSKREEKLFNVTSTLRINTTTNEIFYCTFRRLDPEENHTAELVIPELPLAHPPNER", "assay": "ELISA, recombinant hPD-L1 (Acrobiosystems PD1-H5253) coated at 0.5 ug/mL, detection with anti-human-IgG (H+L)-HRP, OD450", "protocol": "The binding activities of the fusion proteins to human PD-L1 (hPD-L1) were determined using ELISA. […] The plate was blocked with 5% slim milk powder in the coating buffer at 37° C. for 1 h. […] Finally, 1:5000 diluted anti-human-IgG (H+L)-HRP was added. After an incubation at 37° C. for 1 h, TMB substrate was added for color development. The data was collected using a microplate reader."}, "[2]": {"biological_target": "T2, His-tagged human IL21R (hIL21R-His) (human, UniProt Q9HBE5 20-232, limits assumed)", "T2 construct": "not shown: His tag", "assay": "SPR (Biacore T200), Ab0033 captured on Protein A chip, hIL21R-His as analyte", "protocol": "(§1) The Biacore T200 biosensor is equipped with Sensor Chip Protein A. The proteins (diluted to 1 μg/mL) to be tested were injected at 10 μL/min into the Biacore T200 biosensor for 50 sec, in order to reach the required protein density (about 300 RU). Then His-tagged human IL21R (hIL21R-His, 200 nM) or human PD-L1 (hPD-L1-His, 100 nM) were injected at 30 μL/min into the system for 180 sec. The dissociation was monitored for 600 sec. After each cycle, glycine buffer pH 1.7 (30 μL/min, 30 sec) was used to regenerate the chip."}, "[3]": {"biological_target": "T3, His-tagged human PD-L1 (hPD-L1-His) (human, UniProt Q9NZQ7 19-238, limits assumed)", "T3 construct": "not shown: His tag", "T3 sequence (Q9NZQ7 19-238 limits assumed)": "as above", "assay": "SPR (Biacore T200), Ab0033 captured on Protein A chip, hPD-L1-His 100 nM as analyte, 1:1 Langmuir fit", "protocol": "as §1\nData were processed with Biacore T200 evaluation software 3.0. The binding kinetics were analyzed by globally fitting the data with the 1:1 Langmuir binding model to obtain the association rate (kₒₙ) and dissociation rate (koff). The affinity (KD) was calculated using the formula: KD=koff/kₒₙ."}, "[4]": {"biological_target": "B1", "assay": "ELISA, recombinant hIL21R coated at 0.5 ug/mL, detection with anti-human-IgG (H+L)-HRP, OD450", "protocol": "(§2) The binding activities of the fusion proteins to human IL21 receptor (hIL21R or Hu-IL21R) were determined using ELISA. Recombinant hIL21R protein were diluted using coating buffer (1×PBS) to 0.5 μg/mL and coated to an ELISA plate at 4° C. overnight. The plate was blocked with 5% slim milk powder in coating buffer at 37° C. for 1 h. […] Finally, 1:5000 diluted anti-human-IgG (H+L)-HRP was added. After an incubation at 37° C. for 1 h, TMB substrate was added for color development. The data was collected using a microplate reader."}, "[5]": {"biological_target": "T1, Recombinant hPD-L1 protein …", "assay": "ELISA, recombinant hPD-L1 coated at 0.5 ug/mL, detection with anti-human-IgG (H+L)-HRP, OD450", "protocol": "Recombinant hPD-L1 was diluted in coating buffer (1×PBS) to 0.5 μg/mL and coated to an ELISA plate at 4° C. overnight. The plate was blocked with 5% slim milk powder in coating buffer at 37° C. for 1 h. […] Finally, 1:5000 diluted anti-human-IgG (H+L)-HRP was added. After an incubation at 37° C. for 1 h, TMB substrate was added for color development. The data was collected using a microplate reader."}, "LC0030-1": {"biological_target": "T4, LC0030-1 (Homo sapiens (Human), UniProt P0DOX7 1-214; P0DOX5 2-449 = IgG part)", "T4 construct": "Antibody-cytokine fusion (immunocytokine) made by Sortase A conjugation; also called fusion protein prepared from Ab0030 containing one hIL21 (isoform 1); DAR1", "assay": "ELISA, recombinant hIL21R coated at 0.5 ug/mL, detection with anti-human-IgG (H+L)-HRP, OD450", "protocol": "as §2"}}}
{"binder": "Ab0033 (antibody, human IgG1, kappa, N297A, V domains shown, Signal peptides are not part of the purified protein; also called antibody moiety Ab0033; derived from Ab0002 (3F2)) VH: QVQLQESGPGLVKPSETLSLTCTVSGYSITSGYNWHWIRQFPGNGLEWMGYIHHSSITNYNPSLKSRITISRDTSKNQFSLKLSSVTAADTATYYCAREGYDYDWFAYWGQGTLVTVSS VL: DIVLTQSPDFQSVTPKEKVTITCRASQSISNNLHWYQQKPDESPKLLIKYASQSISGIPSRFSGSGSGTDFTLTINSVEAEDFAMYFCQQSKSWPFTFGQGTRLEIKR", "values": [{"measurement": "EC50 (read off the curve)", "setting": "[1]", "value": "~0.08", "unit": "nM"}, {"measurement": "binding result", "setting": "[2]", "value": "no binding (tested: 200 nM)"}, {"measurement": "Kd", "setting": "[3]", "value": 0.608, "unit": "nM"}, {"measurement": "koff", "setting": "[3]", "value": 0.0012, "unit": "s⁻¹"}, {"measurement": "kon", "setting": "[3]", "value": "1.98e+06", "unit": "M⁻¹ s⁻¹"}, {"measurement": "binding result", "setting": "[4]", "value": "no binding (tested: about 40 nM)"}, {"measurement": "EC50 (read off the curve)", "setting": "[5]", "value": "~0.1", "unit": "nM"}]}
{"binder": "B1", "values": [{"measurement": "binding result", "setting": "LC0030-1", "value": "binds"}]}
